Reference: the DeepSol protein solubility set

Assay: soluble on expression in E. coli; label from the status in PepcDB or PDB records

Sequence	soluble on expression in E. coli
MTTQTIKFHMKPETFKQNAAISLQDKPLRKSLRTAMDMLMTKRKAVLTDEEELQSLRDLCEHVRQRSLSKLPALLEQLEENLTKLGVKVHWAETPTEACQIIHDIITAKNGKLMVKGKSMVSEEIELNHYLEAKGIKAVESDLGEFIVQMAGEKPTHIVMPAIHKTKEQVSELFHQNLGTPLTDDVDQLTGFARKALRDIYSTADVGLSGVNFAVAETGTLCLVENEGNGRLSTTVPPVHIAITGIEKVVAKLSDIPPLYSLLPRSAIGQNITTYFNMITGPRRSEELDGPQEMHLVLLDNGRSQAYAEDQMRRTLQCIRCGACMNHCPVYTRIGGAAYGTTYPGPIGEIISPHLLGLDATRDLPTACTMCGACVEVCPVRIPITEQMQRLRVEAQRSPTETVPHPIRGQGASHTFGEQMAWRTFNGIFSGSKTYRAFGWAATKFRNLTPRKQLGWTQNRVPMKPAKKTLHELMAEKMRQKEQA	not soluble
MTTSGHACPVPAVNGHMTHYPATPYPLLFPPVIGGLSLPPLHGLHGHPPPSGCSTPSPATIETQSTSSEELVPSPPSPLPPPRVYKPCFVCQDKSSGYHYGVSACEGCKGFFRRSIQKNMIYTCHRDKNCVINKVTRNRCQYCRLQKCFEVGMSKESVRNDRNKKKKETSKQECTESYEMTAELDDLTEKIRKAHQETFPSLCQLGKYTTNSSADHRVRLDLGLWDKFSELATKCIIKIVEFAKRLPGFTGLTIADQITLLKAACLDILILRICTRYTPEQDTMTFSDGLTLNRTQMHNAGFGPLTDLVFTFANQLLPLEMDDTETGLLSAICLICGDRQDLEEPTKVDKLQEPLLEALKIYIRKRRPSKPHMFPKILMKITDLRSISAKGAERVITLKMEIPGSMPPLIQEMLENSEGHEPLTPSSSGNTAEHSPSISPSSVENSGVSQSPLVQ	soluble
MTVANWQVRDLTLILRTGEMQSRLEQARTDFGALLPETVYFQPSAIRLGEFDDEYILTRQELVYVYLREDIARQCALRRHLPSNSSNSGIMATAIPPWLMDARRLNRVMQERCDQGGLVHYYQGPHTNQFFLAIMPSNCFVRFGTDVINNENYGFYARGGNYTEEGEDDDDEMDDEDETGGAETRDSQTGNLINYPIIALGSCHLSALEHHHHHH	not soluble
MTVKIALLGFGTVASGVPFLLKENGGKINQSAHSDIKVAKVLVKDEDEKNRLLAAGNDFNFVTNVDDILSDQDITIVVELMGRIEPAKTFITRALEAGKHVVTANKDLLAVHGAELLEIAQANKVALYYEAAVAGGIPILRTLANSLASDKITRVLGVVNGTSNFMVTKMVEEGWSYDDALAEAQRLGFAESDPTNDVDGIDAAYKMVILSQFAFGMKIAFDDVAHKGIRNITPEDVAVAQELGYVVKLVGSIEETSSGIAAEVTPTFLPKAHPLASVNGVMNAVFVESIGIGESMYYGPGAGQKPTATSVVADIVRIVRRLNDGTIGKDFNEYSRDLVLANPEDVKANYYFSILALDSKGQVLKLAEIFNAQDISFKQILQDGKEGDKARVVIITHKINKAQLENVSAELKKVSEFDLLNTFKVLGE	soluble
MTVLMRLVASAYSIAQKAGMIVRRVIAEGDLGIVEKTCATDLQTKADRLAQMSICSSLARKFPKLTIIGEEDLPSEEVDQELIEDSQWEEILKQPCPSQYSAIKEEDLVVWVDPLDGTKEYTEGLLDNVTVLIGIAYEGKAIAGVINQPYYNYEAGPDAVLGRTIWGVLGLGAFGFQLKEVPAGKHIITTTRSHSNKLVTDCVAAMNPDAVLRVGGAGNKIIQLIEGKASAYVFASPGCKKWDTCAPEVILHAVGGKLTDIHGNVLQYHKDVKHMNSAGVLATLRNYDYYASRVPESIKNALVPAHHHHHH	soluble
MTVTDRIFQNVAELSVPNFFITVEFSVMGNEMPEHIESFVLEKYQAILHGANGRKFVYTEGGWRLFFTFFPTDKVVDERYALKNKVQMKFHK	not soluble
MTWNTCSLCVTSELMNTLDEAKIPLQKAVNYHEQSQNRQFRITLITKCLENQENPEKSEVSVNFFVDLKELVPSCAYFEKFDGLSYVEFSTNCKSTWISAPESVAAPHEDCSHRFQSPIISRNFHAFLDSVCPSLYGIRPTPLTLSSIVPVLDMLSHFHSEPLLTNCERFLMSTNIGHLDGNHLIRLLDKGLCVSLDHRILGRILCICLMSPQAKMSDSSQELAGTIGSVFAQAFVALVYQKLMVKCEENSNLLIEKSKKSIFDGIFMENLKKKLIFHNFYEYSNISKSFRHIKPLEQESSLWPMAMRNLLIPGALGANSSSSKGSSEEKIGNKKRKRQECDHNEESFECILCFDQRCGKCKGEAAFCYKALDNFLYEIRLQLYPHTYRPHLDRDLLREERLSDYILRNQFQPLPDAN	not soluble
MTYPDLSRGAGPVAAGPQPTGLADLLERVLDKGLVIAGDIRVNLLDIELLTIKLRLVIASMETAQQAGIDWWTRDPWLKASESELLEENRRLREQLAQADTNGRKRIEGKESHD	not soluble
MTYPIPKPREKSRWPNLSQGSLPLALARYLPHKRLKVVLTQDAEQALRLQTAWRFFRPHDTAVFLPDWETLPYERFSPHQDLVSERLSALWQIKSGAADVLFVPVATAMQKLPPVPFLAGRTFWLKTGQTLDIGRLKSDLVDAGYNHVSHVVAAGEFAVRGGIVDLFPMGSEMPYRIDLFDDEIDSIKTFDTETQRTISPVSEIRLLPAHEFPTDSEAQKIFRSRFREEVDGNPNDAAVYKAVSNGHFGAGVEYYLPLFFENELETLFDYIGEDALFVSLDDVHAEANRFWSDVKSRYAMAQGDETYPPLLPQYLYLSADVFAGRLKNYGQVLPDVSGKEYTLPDLAVNRQADEPLQALKDFQTAFDGRILLCAESLGRRETMLGFLQQNGLKAKPVSDWQGFLSAHEPLMITVAPLAYGFKLGGLQSPNQQQPTPSPVGEGWGEGKAVAAQTEFSAAAINPLPSPLPQEREQSAAAVSDSLKAAAVSTESSLPLGTSNLHGQIRQQPAPSPVGEGWGEGKAVAAQTEFPASATNPLPSPLPQEREQSAAAVSDDLKTKSSLHPVANNLHGQIRQQPTPSPVGEGWGEGKAVAAQTEFSAAATNPLPSPLPQEREQSAAVVSDSLKAAAVSTESSLPPGKSNLHGQIQQQPAPSPVGEGWGEGKAVAAQSAIAVITESDLYQYVARSRIHNRRKKHAAVSDGLLRDLAEINIGDPVVHEEHGIGRYMGLVTMDLGGETNEMMLLEYAGEAQLYVPVSQLHLISRYSGQAHENIALHKLGSGAWNKAKRKAAEKARDTAAELLNLYAQRAAQSGHKFEINELDYQAFADGFGYEETEDQAAAIAAVIKDLTQAKPMDRLVCGDVGFGKTEVALRAAFVAVMGGKQVAVLAPTTLLVEQHAQNFADRFADFPVKVASLSRFNNSKATKAALEGMADGTVDIVIGTHKLVQDDIKFKNLGLVIIDEEHRFGVRQKEQLKRLRANVDILTMTATPIPRTLSMALEGLRDFSLITTAPSRRLAVKTFVKPFSEGSVREAVLRELKRGGQVFFLHNEVDTIENMRERLETLLPEARIGVAHGQLRERELEQVMRDFLQQRFNVLLCSTIIETGIDIPNANTIIINRADKFGLAQLHQLRGRVGRSHHQAYAYLLTPEYITKDAEKRLDAIAAADELGAGFTLAMQDLEIRGAGEILGEGQSGEMIQVGFTLYTEMLKQAVRDLKKGRQPDLDAPLGITTEIKLHSPALLPEDYCPDIHERLVLYKRLAVCETVQQINTIHEELVDRFGLPEQPVKTLIESHHLRLMAKELGIDAIDAAGEAVTVTFGKNNNVDPTEIILLIQNDKKYRLAGADKLRFTAEMENIEVRINTVKNVLKTLQNRCLPK	not soluble
MTYRVLDPNAQEGSPTEVLVRMYSHPQLRRLYADTEACYTTALADSITGEMRAAFERLRVSDPQMAIPRYVAFHVSGLQQSVVAVPDLVSVSIDKYIRPDYPVYLQFFSEYARQTMSPEYVVRDAVLGWICSERPLPRETVLTLRFQLEYWGDIYRLMKQVFPQASDEWLFGFTSDQLLWMKQNRKILLDNALKRGEMESSQPTVTDRYFKELPPDQLLPPEAPRLIGHWLGTNL	not soluble
MTYTTAKAAEKIGISAHTLRFYDKEGLLPNIGRDEYGNRCFTDNDLQWLGLLQCLKNTGMSLKDIKRFAECTVIGDDTIEERLSLFENQIENVKCQIAELKRYLDLLEYKLAFYQKAKALGSVKAVNLPQIPETA	soluble
